T1: TNO211 peptide (DABCYL-GABA-Pro-Gln-Gly-Leu-Glu(EDANS)-Ala-Lys-NH2)
T1 chain: PQGLEAK

B1: proteinase K (protein)
chain: AAQTNAPWGLARISSTSPGTSTYYYDESAGQGSCVYVIDTGIEASHPEFEGRAQMVKTYYYSSRDGNGHGTHCAGTVGSRTYGVAKKTQLFGVKVLDDNGSGQYSTIIAGMDFVASDKNNRNCPKGVVASLSLGGGYSSSVNSAAARLQSSGVMVAVAAGNNNADARNYSPASEPSVCTVGASDRYDRRSSFSNYGSVLDIFGPGTSILSTWIGGSTRSISGTSMATPHVAGLAAYLMTLGKTTAASACRYIADTANKGDLSNIPFGTVNLLAYNNYQA
B2: MMP-2 (protein)
chain: YNFFPRKPKWDKNQITYRIIGYTPDLDPETVDDAFARAFQVWSDVTPLRFSRIHDGEADIMINFGRWEHGDGYPFDGKDGLLAHAFAPGTGVGGDSHFDDDELWTLGEGQVVRVKYGNADGEYCKFPFLFNGKEYNSCTDTGRSDGFLWCSTTYNFEKDGKYGFCPHEALFTMGGNAEGQPCKFPFRFQGTSYDSCTTEGRTDGYRWCGTTEDYDRDKKYGFCPETAMSTVGGNSEGAPCVFPFTFLGNKYESCTSAGRSDGKMWCATTANYDDDRKWGFCPDQGYSLFLVAAHEFGHAMGLEHSQDPGALMAPIYTYTKNFRLSQDDIKGIQELYGASPDIDLGTGPTPTLGPVTPEICKQDIVFDGIAQIRGEIFFFKDRFIWRTVTPRDKPMGPLLVATFWPELPEKIDAVYEAPQEEKAVFFAGNEYWIYSASTLERGYPKPLTSLGLPPDVQRVDAAFNWSKNKKTYIFAGDKFWRYNEVKKKMDPGFPKLIADAWNAIPDNLDAVVDLQGGGHSYFFKGAYYLKLENQSLKSVKFGSIKSDWLGC

How the values were obtained:
[1] = biological target: RH substrate
[2] = biological target: Substrate AA
[3] = biological target: T1, TNO211 peptide …

| Protein | cleavage of the dye-labelled immobilized substrate (color generation) [1] | visible color from cleavage of the dye-labelled immobilized substrate [2] | protease activity (fluorescence from cleavage of substrate TNO211), relative to pronase [3] |
| --- | --- | --- | --- |
| B1 | none of the enzyme preparations were successful in cleaving the RH substrate | AA substrate reacted with pronase and proteinase K did produce a visible color within 2.5 h at 37 °C |  |
| B2 |  |  | 17±4% |
